Measurements from patent US20230392126A1, “TISSUE ORGANOIDS” (priority 2016, published 2023).

Test system: mouse epidermal stem cells
Assay: Cell proliferation and differentiation of engineered mouse epidermal cells in vitro (cell cycle FACS, calcium shift western blot)
Type: cell-based
Experimental: Primary human neonatal epidermal keratinocytes were obtained from Thermo Fischer® (C0015C), and cultured with Epilife® medium (Thermo Fischer, M-EPICF-500) with manufacturer's recommended procedures. Calcium shift was performed to induce differentiation of primary keratinocytes by increasing the calcium concentration in culture media to 1.5 mM.
Propidium iodide (PI) staining followed by flow cytometry were used to determine the effect of cell cycle profiles. Mouse and human epidermal cells were cultured in two 6 cm cell culture dish for 24 hours, respectively. Cells were trypsinized, and 1×10^5 cells from each dish were collected, followed by one PBS wash. […] After staining, the cells were analyzed immediately using flow cytometer BD FACSCanto™ II (BD Biosciences, San Jose, CA) with an excitation wavelength at 488 nm and emission at 585 nm. DNA content and histograms of cell cycle distribution were analyzed using FlowJo™ software, version 10 (FLOWJO LLC, OR).
Western blotting was performed as described previously (Blanpain et al.). […] Visualization and quantification was carried out with the LI-COR Odyssey® scanner and software (LI-COR Biosciences).
Propidium iodide (PI) staining followed by flow cytometry were used to determine the effect of cell cycle profiles. […] DNA content and histograms of cell cycle distribution were analyzed using FlowJo™ software, version 10 (FLOWJO LLC, OR). […]

In the case of GLP1, the “effect of expression on cell proliferation / differentiation in vitro” value is reported as “did not significantly change cell proliferation”.
